These results are taken from publication PMC9858521 (Science Advances, 2023).

Ends that are not written are not given here. * marks the point of attachment. Biotin = O=C1N[C@H]2[C@H](CS[C@H]2CCCCC(=O)*)N1

In assay [1] the target is T1, FLAG-γ1-COP (N-terminal FLAG-tagged human γ1-COP) (human, UniProt Q9Y678 1-874).
T1 sequence (looked up): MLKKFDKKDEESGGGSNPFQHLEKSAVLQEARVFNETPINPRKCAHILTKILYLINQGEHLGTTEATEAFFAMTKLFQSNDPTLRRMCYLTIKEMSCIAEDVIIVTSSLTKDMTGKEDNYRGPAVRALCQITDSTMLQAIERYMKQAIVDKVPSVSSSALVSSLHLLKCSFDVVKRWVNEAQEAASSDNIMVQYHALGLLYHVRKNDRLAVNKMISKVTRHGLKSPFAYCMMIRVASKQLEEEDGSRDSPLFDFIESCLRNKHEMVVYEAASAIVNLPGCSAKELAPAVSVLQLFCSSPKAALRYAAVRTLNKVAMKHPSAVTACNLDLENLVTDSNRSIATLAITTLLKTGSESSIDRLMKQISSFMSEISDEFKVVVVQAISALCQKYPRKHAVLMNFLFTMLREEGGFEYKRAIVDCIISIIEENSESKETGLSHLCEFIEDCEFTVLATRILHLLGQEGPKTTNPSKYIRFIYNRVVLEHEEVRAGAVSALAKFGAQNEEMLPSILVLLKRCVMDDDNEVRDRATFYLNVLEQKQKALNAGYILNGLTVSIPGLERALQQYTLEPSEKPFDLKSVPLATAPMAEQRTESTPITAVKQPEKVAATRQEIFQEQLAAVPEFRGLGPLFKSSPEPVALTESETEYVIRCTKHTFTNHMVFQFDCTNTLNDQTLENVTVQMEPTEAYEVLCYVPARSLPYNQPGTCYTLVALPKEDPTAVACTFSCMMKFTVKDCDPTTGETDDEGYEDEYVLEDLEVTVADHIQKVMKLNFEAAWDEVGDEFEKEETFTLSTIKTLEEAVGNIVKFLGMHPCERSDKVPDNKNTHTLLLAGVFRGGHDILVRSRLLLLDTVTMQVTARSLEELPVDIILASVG
Put plainly: pull-down.

The target of assay [2] is T1, FLAG-γ1-COP (N-terminal FLAG-tagged …). Description: co-IP.

B1: biotin-tagged WT HPV16 L2 peptide (residues T299 to L312) (peptide)
peptide: Biotin-TGIRYSRIGNKQTL
Turning to B1, the binding result in assay [1] is “binds”.

B2: HA-(Δ1–67) L2-3xFLAG (domain or fragment, HPV16, UniProt P03107 68-473, looked up)
chain: GRTGYIPLGTRPPTATDTLAPVRPPLTVDPVGPSDPSIVSLVEETSFIDAGAPTSVPSIPPDVSGFSITTSTDTTPAILDINNTVTTVTTHNNPTFTDPSVLQPPTPAETGGHFTLSSSTISTHNYEEIPMDTFIVSTNPNTVTSSTPIPGSRPVARLGLYSRTTQQVKVVDPAFVTTPTKLITYDNPAYEGIDVDNTLYFSSNDNSINIAPDPDFLDIVALHRPALTSRRTGIRYSRIGNKQTLRTRSGKSIGAKVHYYYDLSTIDPAEEIELQTITPSTYTTTSHAASPTSINNGLYDIYADDFITDTSTTPVPSVPSTSLSGYIPANTTIPFGGAYNIPLVSGPDIPINITDQAPSLIPIVPGSPQYTIIADAGDFYLHPSYYMLRKRRKRLPYFFSDVSLAA
On to B2, for which, in assay [2], the binding result is given as “binds”.
